From PMC6743330

Biological target: PtmU3 (Streptomyces platensis CB00739)
Experiment: SEC

Question: How did the stoichiometry N turn out when PtmU3 (enzyme) was run?
Answer: The stoichiometry N was 2.
